Reference: patent publication US20210380960

How the values were obtained:
[1] = molecular target: T1, Peptide 1: enriched in negatively charged residues
T1 chain: EEDEKRRKYTSWNSE

[2] = molecular target: T2, Peptide 7 (random peptide)
T2 chain: GISEQFKTNVLREYA

[3] = molecular target: T3, Peptide 5: enriched with aromatic residues
T3 chain: YFLMNENRYTSWNSE

[4] = molecular target: T4, Peptide 2: enriched in hydrophobic residues
T4 chain: LMLLNENRYTSWNSE

[5] = molecular target: T5, Peptide 4: enriched in glycines
T5 chain: GGGGNENRYTSWNSE

B1: PhTET1 (protein)
chain: MMSMIEKLKKFTQIPGISGYEERIREEIIREIKDFADYKVDAIGNLIVELGEGEERILFMAHMDEIGLLITGITDEGKLRFRKVGGIDDRLLYGRHVNVVTEKGILDGVIGATPPHLSLERDKSVIPWYDLVIDIGAESKEEALELVKPLDFAVFKKHFSVLNGKYVSTRGLDDRFGVVALIEAIKDLVDHELEGKVIFAFTVQEEVGLKGAKFLANHYYPQYAFAIDSFACCSPLTGDVKLGKGPVIRAVDNSAIYSRDLARKVWSIAEKNGIEIQIGVTGGGTDASAFQDRSKTLALSVPIKYLHSEVETLHLNDLEKLVKLIEALAFEL
B1 was tested. Which “hydrolysis of the peptide, RP-HPLC after 15 min” value [1] did it give?
Its value is “no hydrolysis activity is observed”.

B2: PhTET3 (protein)
chain: MDLKGGESMVDWKLMQEIIEAPGVSGYEHLGIRDIVVDVLKEVADEVKVDKLGNVIAHFKGSSPRIMVAAHMDKIGVMVNHIDKDGYLHIVPIGGVLPETLVAQRIRFFTEKGERYGVVGVLPPHLRRGQEDKGSKIDWDQIVVDVGASSKEEAEEMGFRVGTVGEFAPNFTRLNEHRFATPYLDDRICLYAMIEAARQLGDHEADIYIVGSVQEEVGLRGARVASYAINPEVGIAMDVTFAKQPHDKGKIVPELGKGPVMDVGPNINPKLRAFADEVAKKYEIPLQVEPSPRPTGTDANVMQINKEGVATAVLSIPIRYMHSQVELADARDVDNTIKLAKALLEELKPMDFTP
For B2, which “hydrolysis of peptide 7 incorporated into a casein hydrolyzate, RP-HPLC” value [2] is on record?
The value was “the peptide of interest is not very hydrolyzed”.

And the “hydrolysis of the peptide, RP-HPLC after 15 min (PhTET3 alone, 5% experiment)” value [3]?
The value was “there is a strong accumulation of the peptide pep-1 after the 15 minutes of incubation of the aminopeptidase with the substrate peptide”.

And the “hydrolysis of the peptide, RP-HPLC after 15 min at 40° C.” value [3]?
The value was “a significant decrease in hydrolysis is observed. In fact, in this case, only the peptide pep-1 is visible and in very small quantity”.

And the “hydrolysis of the peptide, RP-HPLC after 15 min at 60° C.” value [3]?
The value was “there is an accumulation of the peptide pep-1 while the intact substrate peptide is no longer present in the medium”.

What about the “hydrolysis of the peptide, RP-HPLC and mass spectrometry” value [3] of the same protein?
The value was “significant accumulation of peptides whose tyrosine at the N-terminal end has been hydrolyzed”.

B3: PhTET2 (protein)
chain: MEVRNMVDYELLKKVVEAPGVSGYEFLGIRDVVIEEIKDYVDEVKVDKLGNVIAHKKGEGPKVMIAAHMDQIGLMVTHIEKNGFLRVAPIGGVDPKTLIAQRFKVWIDKGKFIYGVGASVPPHIQKPEDRKKAPDWDQIFIDIGAESKEEAEDMGVKIGTVITWDGRLERLGKHRFVSIAFDDRIAVYTILEVAKQLKDAKADVYFVATVQEEVGLRGARTSAFGIEPDYGFAIDVTIAADIPGTPEHKQVTHLGKGTAIKIMDRSVICHPTIVRWLEELAKKHEIPYQLEILLGGGTDAGAIHLTKAGVPTGALSVPARYIHSNTEVVDERDVDATVELMTKALENIHELKI
Which “hydrolysis of the peptide, RP-HPLC after 15 min” value [4] does the source give for B3 here?
Its value is “the first residues of the peptide were hydrolyzed more quickly in the presence of PhTET3 than in the presence of PhTET2”.

B4: PhTET4 (protein)
chain: MERIVKILREILEIPSPTGYTKEVMSYLEKFLKENEVNFYYTNKGALIAGNHPKPELVVIAHVDTLGAMVKEILPDGHLAFSRIGGLVLPTFEGEYCTIITRKGKKFRGTLLLRNPSAHVNREVGKKERKEENMYIRLDELVEKREDTEKLGIRPGDFIAFDPKFEYVNGFVKSHFLDDKASVAAILDLIIDMKDELEKYPVAFFFSPYEEVGHGGSAGYPPTTKELLVVDMGVVGEGVSGKETAVSIAAKDTTGPYDYDMTNRLIELAEENNIPYVVDVFPYYGSDGSAALRAGWDFRVALIGPGVHASHGMERTHVKGLLATKELIRAYIKWKG
Which results are given for B4?
hydrolysis of peptide 7 incorporated into a casein hydrolyzate, RP-HPLC [2]: only the peptide of interest is hydrolysed by the aminopeptidase PhTET4 and, this, almost completely; kinetics of hydrolysis of the peptide, RP-HPLC after 5, 15 and 30 min [2]: only the hydrolysis of the first glycine residue was observed; hydrolysis of the peptide, RP-HPLC after 15 min [5]: no hydrolysis activity is observed

B5: MjTET (protein)
chain: MSVVEYLKKLSKLHGISGREDSVREFMKKELEKYCDSVEIDNFGNLIAKRGNKGKKIMIAAHMDEIGLMVKYIDDNGFLKFTKIGGIYDPTILNQKVVVHGSKGDLIGVLGSKPPHRMKEEEKTKIIKYEDMFIDIGAESREEAIEMGVNIGTWVSFLSEVYDLGKNRLTGKAFDDRVGCAVLLEVMKRLSEEDIDCQVYAVGTVQEEVGLKGARVSAFKINPDVAIALDVTIAGDHPGIKKEDAPVDLGKGPVVGIVDASGRGLIAHPKVLDMIKAVSEKYKIDVQWEVGEGGTTDATAIHLTREGIPTGVISVPARYIHTPVEVIDKRDLEKTVELVYNCIKEVNNFF
Which results are given for B5?
hydrolysis of peptide 7 incorporated into a casein hydrolyzate, RP-HPLC [2]: the peptide of interest is not very hydrolyzed; kinetics of hydrolysis of the peptide, RP-HPLC after 5, 15 and 30 min [2]: we observe, in addition to the peptide pep-1, the peptides pep-2 and pep-3, and what corresponds to pep-4 ... between 15 and 30 min, the concentration of the substrate peptide pep-0 does not seem to have decreased; hydrolysis of the peptide, RP-HPLC after 15 min at 40° C. [3]: all the intermediate peptides are visible as well as the final product pep-4, and there is only a significant slowdown in hydrolysis; hydrolysis of the peptide, RP-HPLC after 15 min at 60° C. [3]: part of the intact peptide is still present in the reaction medium, while the residues of the hydrolysis products are present in almost equivalent amounts. There is a slight accumulation of the final hydrolysis product, the peptide pep-4
